Measurements as given in article PMC9225179, “RNA Polymerase II Transcription in Pneumocystis: TFIIB from Pneumocystis carinii Can Replace the Transcriptional Functions of Fission Yeast Schizosaccharomyces pombe TFIIB In Vivo and In Vitro” (International Journal of Molecular Sciences, 2022).

Molecular target: T1, Schizosaccharomyces pombe TFIIB (S. pombe, UniProt O13749 1-340)
T1 construct: General transcription factor TFIIB of S. pombe (sua7), 340 aa as printed; also called SpIIB; fission yeast TFIIB
T1 sequence (looked up): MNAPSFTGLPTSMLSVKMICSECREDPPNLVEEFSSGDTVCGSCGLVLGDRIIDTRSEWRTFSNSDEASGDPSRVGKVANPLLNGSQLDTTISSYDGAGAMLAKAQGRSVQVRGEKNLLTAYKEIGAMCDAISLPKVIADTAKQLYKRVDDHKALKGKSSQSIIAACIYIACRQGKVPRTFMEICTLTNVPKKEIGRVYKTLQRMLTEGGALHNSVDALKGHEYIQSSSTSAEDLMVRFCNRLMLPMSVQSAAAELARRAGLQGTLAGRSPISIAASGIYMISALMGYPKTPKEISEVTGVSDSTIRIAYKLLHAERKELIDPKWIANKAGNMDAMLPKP
Assay: native gel or EMSA; TBP and TFIIB (20 ng each) on 32P-labelled Ad-MLP TATA box probe; 20 mM HEPES pH 7.9, 50 mM KCl, 5 mM MgCl2, 5% glycerol; 15 min at 30 °C; 5% polyacrylamide gel at 4 °C
Settings: both partners purified

B1: Schizosaccharomyces pombe TATA-binding protein (natural protein, S. pombe, UniProt P17871 1-231, looked up)
chain: MDFALPTTASQASAFMNNSSLTFPVLPNANNEATNETADSGDAEVSKNEGVSGIVPTLQNIVATVNLDCRLDLKTIALHARNAEYNPKRFAAVIMRIREPKSTALIFASGKMVVLGGKSEDDSKLASRKYARIIQKLGFNAKFTDFKIQNIVGSCDVKFPIRLEGLAYSHGTFSSYEPELFPGLIYRMVKPKVVLLIFVSGKIVLTGAKVREEIYQAFEAIYPVLSEFRKH
notes: also called TBP; fission yeast TBP
  binding result: binds
